Results on 1 protein are retold here after article PMC3621117 (The FEBS journal, 2013).

The series concerns the molecule itself. Briefly: SEC. (In general: SEC sorts molecules by how far they enter the pores of the column.)

B1: wild-type ExsD (natural protein)
chain: VVGSDARSRGRVPGYASSSLYRESGIISARQLALLQRMLPRLRLEQLFRCEWLQQRLARGLALGREEVRQILLCAAQDDDGWCSELGDRVNLAVPQSMIDWVLLPVYGWWESLLDQAIPGWRLSLVELETQSRQLRVKSEFWSRVAELEPEQAREELARVAKCQARTQEQVAELAGKLETASALAKSAWPNWQRGMATLLASGGLAGFEPIPEVLECLWQPLCRLDDDVGAADAVQAWLHERNLCQAQDHFYWQS
On to B1, for which the “stoichiometry N” value came to 3.

The stoichiometry N is a count of units in the complex or per binding partner.
